Results taken from patent US20110243928A1 (published 2011).
*: point of attachment. Biotin = O=C1N[C@H]2[C@H](CS[C@H]2CCCCC(=O)*)N1

T1: E. coli-expressed recombinant cynomolgus IL-13 (cynomolgus, UniProt Q5I6E4 21-132 (Macaca thibetana entry))
T1 construct: also called cyno IL13 (CA); cIL-13
T1 chain: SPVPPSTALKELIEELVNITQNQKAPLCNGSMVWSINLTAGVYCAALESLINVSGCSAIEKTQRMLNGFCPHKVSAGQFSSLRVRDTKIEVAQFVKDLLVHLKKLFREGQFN

T2: E. coli-expressed recombinant human IL-4 (human, UniProt P05112 25-153)
T2 sequence (looked up): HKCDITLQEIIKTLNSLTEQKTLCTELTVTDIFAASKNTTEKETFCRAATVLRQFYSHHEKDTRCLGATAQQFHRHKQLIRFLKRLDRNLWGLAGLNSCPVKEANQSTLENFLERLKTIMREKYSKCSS

T3: fine mapping peptide 421 (SMILES …)
T3 peptide: Biotin-SGSGKLFREG-NH2

T4: fine mapping peptide 423 (SMILES N=C(N)NCCC[C@H](NC(=O)[C@H](Cc1ccccc1)NC(=O)CNC(=O)[C@H](CO)NC(=O)CNC(=O)[C@H](CO)NC(=O)CCCC[C@@H]1SC[C@@H]2NC(=O)N[C@@H]21)C(=O)N[C@@H](CCC(=O)O)C(=O)NCC(N)=O)
T4 peptide: Biotin-SGSGFREG-NH2

B1: L1+A1 (antibody, human IgG1, kappa, V domains shown)
VH: QVQLVQSGAEVKKPGSSVKVSCKASGFYIKDTYMHWVRQAPGQGLEWMGTIDPANGNTKYVPKFQGRVTITADESTSTAYMELSSLRSEDTAVYYCARSIYDDYHYDDYYAMDYWGQGTLVTVSS
VL: DIVMTQSPLSLPVTPGEPASISCRSSQNIVHINGNTYLEWYLQKPGQSPRLLIYKISDRFSGVPDRFSGSGSGTDFTLKISRVEADDVGIYYCFQGSHVPWTFGQGTKLEIKR
notes: Humanised 6A1, VH construct A1 and VL construct L1, human gamma1 wild type / kappa constant regions; also called A1L1; humanised anti-IL-13 mAb L1+A1
B2: monoclonal antibody 6A1 (antibody, IgG1, V domains shown)
VH: EIQLQQSVAELVRPGASVRLSCTASGFYIKDTYMHWVIQRPEQGLEWIGTIDPANGNTKYVPKFQGKATITADTSSNTAYLRLSSLTSEDTAIYYCARSIYDDYHYDDYYAMDYWGQGTSVTVSS
VL: DVLMTQTPLSLPVSLGDQASISCRSSQNIVHINGNTYLEWYLQKPGQSPKLLIYKISDRFSGVPDRFSGSGSGTDFTLKISRVEAEDLGVYYCFQGSHVPWTFGGGTKLEIK
notes: also called 6A1 parental mAb; parental mouse mAb 6A1

Columns and labels:
[1] = target: T5, E. coli-expressed recombinant human IL-13 (human, UniProt P35225 35-146); assay: BIAcore analysis 4, antibody captured on Protein A, IL-13 in solution
T5 construct: Untagged E. coli-expressed human IL-13; also called hIL-13; human IL13 (CA)
T5 sequence (P35225 other isoform, or with tags, fused parts or gaps): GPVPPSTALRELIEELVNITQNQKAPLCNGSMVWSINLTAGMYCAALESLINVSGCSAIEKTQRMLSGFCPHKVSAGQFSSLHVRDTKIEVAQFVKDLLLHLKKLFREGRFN
Protocol: (§1) Completed for both human and cynomolgus IL-13 (E. coli-expressed protein). The quoted KD values are the average from 5 different IL-13 concentration curves (done in triplicate).
(§2) The kinetics analysis was performed on a Biacore 3000 machine, using an antibody capture method. Briefly, for the chimeric 6A1 and humanised antibody constructs Protein A capture was used, whilst for the parental murine 6A1 antibody, capture was by a anti-mouse Fc antibody supplied by Biacore. Briefly, the method is as follows, the capture ligand was immobilised to a CM5 Biosensor chip by primary amine coupling in accordance with Biacore standard protocols and using the reagents supplied in Biacores' primary amine coupling kit. The method involves activation CM5 sensor surface by passing a solution of 50 mM N-hydroxy-succinimide (NHS) and 200 mM N-ethyl-N′-dimethylaminopropyl […] (EDC) over the surface. Then, the capture ligand (dissolved in acetate buffer pH5 or pH4.5) was coupled to the activated sensor surface after which any still activated esters were blocked by an injection of 1M ethanolamine hydrochloride, pH8.5.
(§3) The candidate antibody was then passed over the Protein A or anti-mouse Fc antibody surface, depending on whether it was human or mouse in origin and captured. Once a stable binding signal was seen IL13 was passed over the captured antibody surface at various defined concentrations. The subsequent binding curves were analysed with Biacore analysis software BIAeval v4.1 to determine kinetics. The experiments were carried out using Biacore HBS-EP buffer.

[2] = target: T1, E. coli-expressed recombinant …; assay: as above
Protocol: as §1, §2, §3

[3] = target: T2, E. coli-expressed recombinant human IL-4; assay: binding ELISA
[4] = target: T6, E. coli-expressed recombinant human GM-CSF (human, UniProt P04141 18-144); assay: binding ELISA
T6 sequence (P04141 18-144 limits assumed): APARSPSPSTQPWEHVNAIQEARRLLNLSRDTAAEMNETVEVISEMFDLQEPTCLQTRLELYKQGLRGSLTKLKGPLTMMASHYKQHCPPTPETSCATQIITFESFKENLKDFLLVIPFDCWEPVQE

[5] = target: T6, E. coli-expressed recombinant human …; assay: sandwich ELISA
[6] = target: T7, E. coli-expressed recombinant det-1 tagged human IL-13 (human, UniProt P35225 35-146); assay: competition ELISA: inhibition of det-1 tagged human IL-13 binding to human IL-13Rα1-Fc
T7 construct: also called Det-1 tagged human IL-13 (made in-house); not shown: det-1 tag
T7 sequence (P35225 other isoform, or with tags, fused parts or gaps): as the sequence (P35225 other isoform, or with tags, fused parts or gaps) above

[7] = target: T3, fine mapping peptide 421; assay: fine mapping peptide ELISA
Protocol: (§4) A binding epitope for mAb 6A1 was determined using a peptide set based around […] for binding to human IL-13 and […] for binding to cynomolgus IL-13. Peptides were ordered with 1 amino acid sequentially removed from either the N or C-terminus of these parental peptide sequences (i.e. […] or […]), in order to define the precise linear binding epitope for mAb 6A1.
(§5) An ELISA method was used to detect binding of immobilised biotinylated peptide to the parental mAb 6A1.

[8] = target: T4, fine mapping peptide 423; assay: fine mapping peptide ELISA
Protocol: as §4, §5

| Binder | Kd [1] [nM] | koff [1] [s⁻¹] | kon [1] [M⁻¹ s⁻¹] | Kd [2] [nM] | koff [2] [s⁻¹] | kon [2] [M⁻¹ s⁻¹] | binding result [3] | binding result [4] | binding result [5] | IC50 [6] [µg/mL] | absorbance at 490 nm [7] [A490] | absorbance at 490 nm [8] [A490] |
| --- | --- | --- | --- | --- | --- | --- | --- | --- | --- | --- | --- | --- |
| B1 | 0.17 | 0.00014 | 824000 | 0.08 | 5.86e-05 | 730000 | no binding (tested: 30 µg/ml) | no binding (tested: 30 µg/ml) | – | – | – | – |
| B2 | – | – | – | – | – | – | – | – | no binding | 0.165 | 0.059 | 0.052 |
